From patent US20220220204A1 (published 2022)
Positions count from the first letter of the chain named. Like-named read-outs stand apart in the source and are kept apart here.

T1: LAG-3 expressed on CHO-K1 cells (UniProt P18627 23-525)
T1 chain: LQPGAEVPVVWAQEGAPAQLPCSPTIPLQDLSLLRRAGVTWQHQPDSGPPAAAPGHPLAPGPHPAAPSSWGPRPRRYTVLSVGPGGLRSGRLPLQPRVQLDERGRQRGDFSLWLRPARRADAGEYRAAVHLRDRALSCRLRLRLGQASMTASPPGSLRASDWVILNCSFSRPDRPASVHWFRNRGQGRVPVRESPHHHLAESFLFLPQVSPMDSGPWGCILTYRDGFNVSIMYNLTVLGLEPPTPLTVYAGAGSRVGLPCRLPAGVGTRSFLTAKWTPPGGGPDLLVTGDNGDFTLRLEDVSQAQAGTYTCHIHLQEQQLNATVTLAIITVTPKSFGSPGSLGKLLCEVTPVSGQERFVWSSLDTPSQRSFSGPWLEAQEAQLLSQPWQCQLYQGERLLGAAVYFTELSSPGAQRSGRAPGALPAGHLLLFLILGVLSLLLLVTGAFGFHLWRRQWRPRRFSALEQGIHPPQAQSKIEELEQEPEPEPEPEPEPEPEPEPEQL

B1: PDL1HCv1 (antibody, V domains shown)
VH: EVQLVQSGAEVKKPGASVKVSCKASGYIFTGYGITWVRQAPGQGLEWMGEIFPRRVQTYYSEKFKGRVTMTTDTSTSTAYMELRSLRSDDTAVYYCARDYDPYFALDYWGQGTTVTVSS
VL: DIQMTQSPSSLSASVGDRVTITCRASQDVSTAVDWYQQKPGKAPKLLIYSASYRYTGVPDRFSGSGSGTDFTFTISSLQPEDIATYYCQQHYSIPFTFGQGTKLEIKR
B2: PDL1HCv5 (antibody, V domains shown)
VH: B1 VH with T72A
VL: B1 VL

How the values were obtained:
Test in all cases: FACS binding
[1] = target: T2, PD-L1 expressed on CHO-K1 cells (UniProt Q9NZQ7 19-290)
[2] = target: T2, PD-L1 expressed on CHO-K1 cells; remark: listed apart in the source
[3] = target: T1, LAG-3 expressed on CHO-K1 cells
[4] = target: T1, LAG-3 expressed on CHO-K1 cells

T2 sequence (Q9NZQ7 19-290): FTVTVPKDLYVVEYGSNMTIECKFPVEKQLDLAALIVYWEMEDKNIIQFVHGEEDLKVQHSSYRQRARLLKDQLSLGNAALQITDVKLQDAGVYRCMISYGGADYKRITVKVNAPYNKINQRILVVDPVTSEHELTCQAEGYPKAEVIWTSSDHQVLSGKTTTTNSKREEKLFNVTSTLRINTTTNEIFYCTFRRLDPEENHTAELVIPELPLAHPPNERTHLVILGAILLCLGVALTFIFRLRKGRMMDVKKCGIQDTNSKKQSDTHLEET

Binder | EC50 [1] | EC50 [2] | EC50 [3] | EC50 [4]
B1 | 0.205 nM | 0.651 nM | 0.0376 nM | –
B2 | – | 0.311 nM | – | 8.42 nM
